Test results from patent US20220041724A1 (GRAND DECADE DEVELOPMENTS, published 2022).

Key:
[1] = target: T1, Recombinant mouse CTLA-4/human IgG1 chimera (R&D Systems) (mouse; human, UniProt P09793 36-162, limits assumed); assay: ELISA: mouse CTLA-4/human IgG1 chimera coated at 1 or 5 µg/mL; HEK293 conditioned medium with 9D9-scFv at 130 ng/mL; anti-mouse IgG-HRP, OD 450 nm
T1 construct: Bought reagent; also called recombinant mCTLA-4/Fc; recombinant CTLA4 protein; not shown: human IgG1 portion (Fc) of the bought chimera
Method: (§1) Plasmid encoded anti-CTLA4 scFv bound to recombinant CTLA4 protein. Transfection-derived secreted anti-CTLA4 (scFv) were evaluated for their binding capacity to CTLA-4. Recombinant mouse CTLA-4/human IgG1 chimera (R&D Systems) were immobilized in 96-well plates (1 or 5 μg/mL, or […]) for 18 hr at room temperature. Wells were washed three times with 0.1% Tween in PBS and blocked with 1% BSA in PBS. Conditioned medium from HEK293 cells transfected with 9H10-scFv (168 ng/mL) or 9D9-scFv (130 ng/mL) was added to the wells, and incubated for 2 h at room temperature. Wells were washed three times, and anti-mouse IgG-horseradish peroxidase (Jackson ImmunoResearch, 0.2 μg/mL) were added and incubated for 1.5 hours at room temperature. Wells were again washed three times, developed with HRP Substrate Reagent (R&D Systems) and stopped with Stop Solution, 2N sulfuric acid (R&D Systems). Optical density of each well was measured at 450 nm.

[2] = target: T1, Recombinant mouse CTLA-4/human IgG1 …; assay: ELISA: mouse CTLA-4/human IgG1 chimera coated at 1 or 5 µg/mL; HEK293 conditioned medium with 9H10-scFv at 168 ng/mL; anti-mouse IgG-HRP, OD 450 nm
Method: as §1

Binder	binding result [1]	binding result [2]
9D9-scFv (Igκ-HA-9D9 VLC-Linker-9D9 VHC-Linker-mIgG1 Fc domain, anti-CTLA-4 scFv) (scFv, scFv (VL-linker-VH) with an N-terminal HA tag, fused to a mouse IgG1 Fc domain; It was secreted into conditioned medium of transfected HEK293 cells; also called plasmid encoded anti-CTLA4 scFv) scFv: YPYDVPDYAGAQPARSDIVMTQTTLSLPVSLGDQASISCRSSQSIVHSNGNTYLEWYLQKPGQSPKLLIYKVSNRFSGVPDRFSGSGSGTDFTLKISRVEAEDLGVYYCFQGSHVPYTFGGGTKLEIKRADAAPTVSGSGGGSGGGSGGGSEAKLQESGPVLVKPGASVKMSCKASGYTFTDYYMNWVKQSHGKSLEWIGVINPYNGDTSYNQKFKGKATLTVDKSSSTAYMELNSLTSEDSAVYYCARYYGSWFAYWGQGTLITVSTAKTTPPSVYPLAPVDSSGSGGCKPCICTVPEVSSVFIFPPKPKDVLTITLTPKVTCVVVDISKDDPEVQFSWFVDDVEVHTAQTQPREEQFNSTFRSVSELPIMHQDWLNGKEFKCRVNSAAFPAPIEKTISKTKGRPKAPQVYTIPPPKEQMAKDKVSLTCMITDFFPEDITVEWQWNGQPAENYKNTQPIMDTDGSYFVYSKLNVQKSNWEAGNTFTCSVLHEGLHNHHTEKSLSHSPGK	binds	–
9H10-scFv (Igκ-HA-9H10 VLC-Linker-9H10 VHC-Linker-mIgG1 Fc domain, anti-CTLA-4 scFv) (scFv, scFv (VL-linker-VH) with an N-terminal HA tag, fused to a mouse IgG1 Fc domain; It was secreted into conditioned medium of transfected HEK293 cells; also called plasmid encoded anti-CTLA4 scFv) scFv: YPYDVPDYAGAQPARSDIVMTQSPSSLAVSVGEKVTISCKSSQSLLYGSSHYLAWYQQKVGQSPKLLIYWASTRHTGIPDRFIGSGSGTDFTLSLSSVQAEDMADYFCQQYFSTPWTFGAGTRVEIKSGSGGGSGGGSGGGSQVQLLQSESELVKPGASVKLSCKTSGYTFTDYYIHWVKQKPGQGLEWIGLINPNNDGTNYNQKFQGKATLTADKSSSTAYMELNSLTFDDSVIYFCARASSRLRMARTTSDYYAMDYWGQGIQVTVSSVDSSGSGGCKPCICTVPEVSSVFIFPPKPKDVLTITLTPKVTCVVVDISKDDPEVQFSWFVDDVEVHTAQTQPREEQFNSTFRSVSELPIMHQDWLNGKEFKCRVNSAAFPAPIEKTISKTKGRPKAPQVYTIPPPKEQMAKDKVSLTCMITDFFPEDITVEWQWNGQPAENYKNTQPIMDTDGSYFVYSKLNVQKSNWEAGNTFTCSVLHEGLHNHHTEKSLSHSPGK	–	binds
